{"source": "paper PMC4407741", "target": "soluble human neonatal Fc receptor (shFcRn; FcRn heavy chain ectodomain / beta2-microglobulin heterodimer) (UniProt P55899+P61769)", "assay": "SPR (BIAcore 3000)", "conditions": "25°C, 150 mM NaCl, HBS-P: 10 mM HEPES at pH 6.0 and pH 7.5 (same buffer at both pH)"}
{"substance": "DX-2504 (clone M161-B04), fully human anti-FcRn IgG1 Affinity-matured heavy-chain CDR variant of DX-2500/M90-F11 (substitutions not printed)", "values": [{"measurement": "Kd", "setting": "pH 6.0", "value": 1.5, "unit": "nM"}, {"measurement": "koff", "setting": "pH 6.0", "value": 0.00035, "unit": "s⁻¹"}, {"measurement": "kon", "setting": "pH 6.0", "value": 240000, "unit": "M⁻¹ s⁻¹"}, {"measurement": "Kd", "setting": "pH 7.5", "value": 1.9, "unit": "nM"}, {"measurement": "koff", "setting": "pH 7.5", "value": 0.00028, "unit": "s⁻¹"}, {"measurement": "kon", "setting": "pH 7.5", "value": 150000, "unit": "M⁻¹ s⁻¹"}]}
{"substance": "DX-2500 (germlined parental clone M90-F11), fully human anti-FcRn IgG1 germlined relative to M90-F11 (changes not printed)", "values": [{"measurement": "koff", "setting": "pH 6.0", "value": 0.0177, "unit": "s⁻¹"}, {"measurement": "koff", "setting": "pH 7.4", "value": 0.0752, "unit": "s⁻¹"}]}
{"substance": "DX-2507, fully human anti-FcRn IgG1 (variant of DX-2504) relative to DX-2504: LC-CDR3 Cys->Ala (position number not printed); C-terminal Lys deleted", "values": [{"measurement": "Kd", "setting": "pH 6.0", "value": 1.8, "unit": "nM"}, {"measurement": "koff", "setting": "pH 6.0", "value": 0.00024, "unit": "s⁻¹"}, {"measurement": "kon", "setting": "pH 6.0", "value": 130000, "unit": "M⁻¹ s⁻¹"}, {"measurement": "Kd", "setting": "pH 7.5", "value": 2, "unit": "nM"}, {"measurement": "koff", "setting": "pH 7.5", "value": 0.00024, "unit": "s⁻¹"}, {"measurement": "kon", "setting": "pH 7.5", "value": 100000, "unit": "M⁻¹ s⁻¹"}]}
